Laboratory results published in patent US8404647B2, “Peptidylarginine deiminase (PAD) inhibitors” (Chiralix B.V., priority 2008, dated 2013).
Marks after values point to notes of the source that are not given here. Ends that are not written are not given here.

Legend:
PAD4 = PAD4 (Homo sapiens, UniProt Q9UM07); experiment: Conversion (R to Cit) of substrate peptides by PAD4, mass spectrometry; assay type: biochemical; conditions: for Conversion by PAD4 (%): Table 10; for Conversion: Table 7, PAD4, test system with 3 times less enzyme; for Conversion (%): PAD4
From the text: From previous studies it was known that D-S-Q-F-A-F-R-G-A-S-A-S-D (designated here as L1: SEQ ID NO: 11) is a substrate for PAD2 and PAD 4. To obtain better substrates, and subsequently powerful inhibitors, we intended to identify structural elements that improve substrate properties. A set of 152 individual analog peptides was generated, each differing from L1 by one amino acid at one of the positions −4 to −1 or 1 to 4.
In Table 3 the conversion of each analog (R to Cit conversion) is depicted. Values of the analogs relate to the conversion of the analog compared to the conversion of L1 under standard conditions (100 means a conversion equal to L1, 50 means conversion of 50% of that of L1, 175 means conversion of 175% of that of L1). Numbers above 100 thus relate to amino acid substitutions that improve substrate properties.
Peptides of table 4 are represented by the following sequences SEQ ID NO: 22-31 and 33-46. Control peptide are represented by the following sequences SEQ ID NO: 11 as control L1 and SEQ ID NO: 32 as control L2. Unfortunately, a substantial number of designed peptides were too polar to be analyzed on our LC-MS system (indicated in Table 4 as n.t., not trapped on the column). We therefore also generated and tested these peptides containing two additional N-terminal F-residues to increase hydrophobicity. In this form peptides were trapped on the column and could be analyzed (see Table 5).
Based on the above results we designed 20 peptides containing multiple amino acids that improve substrate properties (see Table 7). The indicated peptides were synthesized and tested in order to identify the best substrate from this group. Here we used a test system with less enzyme (3 times less) compared to the experiments described above.
(§1) Conversion of arginine into citrulline in the substrate peptides by PAD2 or PAD4 using mass spectrometry was performed as follows. A candidate substrate peptide was incubated with a PAD as indicated for several hours at 37° C. The reaction was quenched by the addition with acetic acid. A sample was analysed on a Qtof mass spectrometer (Micromass, UK) and the mass spectrum was compared with that of the same peptide not treated with PAD. Normally, 2^+- and 3^+-ions are detected. The conversion (ΔM=0.98 Da) was calculated on the 2^+- and 3^+-ions individually, and subsequently averaged taking into account the relative peak height of the 2^+- and 3^+-signals (see FIG. 5).

PAD2 = PAD2 (Homo sapiens, UniProt Q9Y2J8); experiment: Conversion (R to Cit) of substrate peptides by PAD2, mass spectrometry; assay type: biochemical; conditions: for Conversion (%): Table 9, PAD2; for Conversion by PAD2 (%): Table 10
Protocol: In a similar fashion as for PAD4 we identified improved peptide substrates for PAD2. Again L1 was used as a lead compound. The set of 152 peptides from Table 3 was used and testing was performed as described before.
as §1

[1] = Table 5, peptides with two additional N-terminal F-residues

PAD2, sequence (Q9Y2J8 whole entry): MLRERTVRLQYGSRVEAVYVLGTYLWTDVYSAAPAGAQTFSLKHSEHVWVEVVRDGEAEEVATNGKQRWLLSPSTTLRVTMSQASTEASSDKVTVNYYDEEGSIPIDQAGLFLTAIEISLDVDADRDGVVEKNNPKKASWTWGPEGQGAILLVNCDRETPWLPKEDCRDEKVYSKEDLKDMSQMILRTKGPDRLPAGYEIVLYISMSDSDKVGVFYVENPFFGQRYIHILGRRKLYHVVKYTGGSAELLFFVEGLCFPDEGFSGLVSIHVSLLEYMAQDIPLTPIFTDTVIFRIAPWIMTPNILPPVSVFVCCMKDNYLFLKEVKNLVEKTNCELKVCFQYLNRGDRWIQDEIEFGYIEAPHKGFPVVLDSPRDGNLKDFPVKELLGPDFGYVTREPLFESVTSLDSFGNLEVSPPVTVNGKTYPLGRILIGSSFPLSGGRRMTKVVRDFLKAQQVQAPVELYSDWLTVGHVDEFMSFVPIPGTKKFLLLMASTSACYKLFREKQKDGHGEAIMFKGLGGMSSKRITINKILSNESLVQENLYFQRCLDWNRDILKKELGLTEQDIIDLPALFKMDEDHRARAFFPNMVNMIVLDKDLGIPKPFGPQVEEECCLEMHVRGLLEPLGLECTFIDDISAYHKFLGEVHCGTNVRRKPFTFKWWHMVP
PAD4, sequence (Q9UM07 whole entry): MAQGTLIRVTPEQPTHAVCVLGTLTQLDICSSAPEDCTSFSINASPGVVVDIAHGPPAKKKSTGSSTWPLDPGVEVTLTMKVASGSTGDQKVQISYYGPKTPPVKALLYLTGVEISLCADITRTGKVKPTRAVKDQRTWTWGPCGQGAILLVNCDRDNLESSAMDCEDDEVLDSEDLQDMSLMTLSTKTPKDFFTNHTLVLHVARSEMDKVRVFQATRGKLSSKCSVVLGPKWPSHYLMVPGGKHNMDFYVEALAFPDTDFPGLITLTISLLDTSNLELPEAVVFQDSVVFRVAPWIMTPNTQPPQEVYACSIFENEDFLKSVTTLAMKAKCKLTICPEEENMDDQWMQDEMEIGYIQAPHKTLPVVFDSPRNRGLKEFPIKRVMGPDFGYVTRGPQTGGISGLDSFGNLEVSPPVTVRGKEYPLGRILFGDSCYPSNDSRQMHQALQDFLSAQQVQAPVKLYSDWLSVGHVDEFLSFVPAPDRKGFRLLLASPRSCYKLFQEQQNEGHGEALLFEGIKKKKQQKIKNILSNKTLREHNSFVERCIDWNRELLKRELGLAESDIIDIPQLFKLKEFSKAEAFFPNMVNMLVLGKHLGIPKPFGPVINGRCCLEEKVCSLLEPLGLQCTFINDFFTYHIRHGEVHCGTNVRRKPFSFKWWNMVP

Substance	Conversion by PAD4 (%) (PAD4)	Conversion (%) (PAD2)	Conversion by PAD2 (%) (PAD2)	Conversion (PAD4)	Conversion (%) (PAD4; Table 4, 13-mer peptides)	conversion of L2 analogs by PAD4 (PAD4; relative to conversion of L2 (L2 = 100), single substitution at positions -4 to 4) [%]	Conversion (%) (PAD4; [1])
D-S-H-K-W-H-R-D-F-F-Y-S-D (DSHKWHRDFFYSD; not fully specified (C-terminus); printed as D-S-H-K-W-H-R-D-F-F-Y-S-D) [Peptide 0608-35]	73%	–	92%	–	–	–	–
D-S-K-K-H-D-R-D-F-L-Y-S-D (DSKKHDRDFLYSD; not fully specified (C-terminus); printed as D-S-K-K-H-D-R-D-F-L-Y-S-D) [Peptide 0608-31]	58(=L2) %	–	84(=L2) %	45 (=L2)	100% (=L2)	100	–
D-S-K-H-F-H-R-D-F-I-Y-S-D (DSKHFHRDFIYSD; not fully specified (C-terminus); printed as D-S-K-H-F-H-R-D-F-I-Y-S-D) [Peptide 0608-23]	69%	–	94%	–	–	–	–
D-S-K-K-L-H-R-D-H-M-E-S-D (DSKKLHRDHMESD; not fully specified (C-terminus); printed as D-S-K-K-L-H-R-D-H-M-E-S-D) [Peptide 0608-29]	65%	–	90%	–	–	–	–
D-S-K-K-H-D-R-D-H-L-W-S-D (DSKKHDRDHLWSD; not fully specified (C-terminus); printed as D-S-K-K-H-D-R-D-H-L-W-S-D) [Peptide 0708-20]	80%	–	95%	62	–	–	–
D-S-K-K-F-D-R-D-H-L-Y-S-D (DSKKFDRDHLYSD; not fully specified (C-terminus); printed as D-S-K-K-F-D-R-D-H-L-Y-S-D) [Peptide 0708-15]	77%	–	90%	51	–	–	–
D-S-K-H-L-S-R-E-W-M-W-S-D (DSKHLSREWMWSD; not fully specified (C-terminus); printed as D-S-K-H-L-S-R-E-W-M-W-S-D) [Peptide 0608-24]	54%	–	95%	–	90%	–	–
F-F-D-S-H-K-L-H-R-E-W-M-W-S-D (FFDSHKLHREWMWSD) [Peptide 0612-46]	91%	–	92 ** %	–	–	–	100
F-F-D-S-K-H-K-S-R-D-F-V-Y-S-D (FFDSKHKSRDFVYSD) [Peptide 0612-29]	77%	–	92%	–	–	–	100
F-F-D-S-K-K-W-S-R-E-Y-F-F-S-D (FFDSKKWSREYFFSD) [Peptide 0612-32]	76%	–	94%	–	–	–	100
D-S-H-K-H-S-R-E-W-L-W-S-D (DSHKHSREWLWSD; not fully specified (C-terminus); printed as D-S-H-K-H-S-R-E-W-L-W-S-D) [Peptide 0608-36]	51%	–	97%	–	90%	–	–
D-S-K-H-K-S-R-D-F-V-Y-S-D (DSKHKSRDFVYSD; not fully specified (C-terminus); printed as D-S-K-H-K-S-R-D-F-V-Y-S-D) [Peptide 0608-27]	69%	–	94%	–	–	–	–
D-S-K-W-H-H-R-D-H-L-Y-S-D (DSKWHHRDHLYSD; not fully specified (C-terminus); printed as D-S-K-W-H-H-R-D-H-L-Y-S-D) [Peptide 0708-18]	71%	–	90%	60	–	–	–
F-F-D-S-K-K-F-S-R-D-H-I-E-S-D (FFDSKKFSRDHIESD) [Peptide 0612-35]	63%	–	90%	–	–	–	97
F-F-D-S-H-K-K-S-R-E-Y-V-F-S-D (FFDSHKKSREYVFSD) [Peptide 0612-44]	58%	–	100%	–	–	–	100
F-F-D-S-K-H-F-D-R-E-W-I-W-S-D (FFDSKHFDREWIWSD) [Peptide 0612-30]	89%	–	94 ** %	–	–	–	100
F-F-D-S-K-H-L-S-R-E-W-M-W-S-D (FFDSKHLSREWMWSD) [Peptide 0612-26]	73%	–	97%	–	–	–	100
F-F-D-S-H-K-F-D-R-D-F-I-Y-S-D (FFDSHKFDRDFIYSD) [Peptide 0612-45]	94%	–	97 ** %	–	–	–	100
D-S-K-K-K-H-R-E-W-V-W-S-D (DSKKKHREWVWSD; not fully specified (C-terminus); printed as D-S-K-K-K-H-R-E-W-V-W-S-D) [Peptide 0608-32]	72%	–	100%	–	–	–	–
F-F-D-S-K-K-K-H-R-E-W-V-W-S-D (FFDSKKKHREWVWSD) [Peptide 0612-34]	76%	–	99%	–	–	–	100

Other lines, results leading:

Conversion by PAD4 (%) (PAD4)	Conversion (%) (PAD2)	Conversion by PAD2 (%) (PAD2)	Conversion (PAD4)	Conversion (%) (PAD4; Table 4, 13-mer peptides)	conversion of L2 analogs by PAD4 (PAD4; relative to conversion of L2 (L2 = 100), single substitution at positions -4 to 4) [%]	Conversion (%) (PAD4; [1])	Substance
<20%	95	95%	–	–	–	–	D-S-Q-W-A-F-R-H-A-L-F-S-D (DSQWAFRHALFSD) [Peptide 0735-37]
22%	–	96%	24	–	–	–	D-S-K-K-H-F-R-G-K-L-Y-S-D (DSKKHFRGKLYSD; not fully specified (C-terminus); printed as D-S-K-K-H-F-R-G-K-L-Y-S-D) [Peptide 0708-32]
<20%	92	92%	–	–	–	–	D-S-K-F-H-F-R-Y-A-V-A-S-D (DSKFHFRYAVASD; not fully specified (C-terminus); printed as D-S-K-F-H-F-R-Y-A-V-A-S-D) [Peptide 0735-35]
45%	98	98%	–	–	–	–	D-S-K-W-Y-H-R-N-K-F-W-S-D (DSKWYHRNKFWSD) [Peptide 0735-27]
76%	–	92%	61	–	–	–	D-S-K-K-Y-D-R-D-F-L-W-S-D (DSKKYDRDFLWSD; not fully specified (C-terminus); printed as D-S-K-K-Y-D-R-D-F-L-W-S-D) [Peptide 0708-29]
73%	–	100%	60	–	–	–	D-S-K-K-F-H-R-G-F-L-Y-S-D (DSKKFHRGFLYSD; not fully specified (C-terminus); printed as D-S-K-K-F-H-R-G-F-L-Y-S-D) [Peptide 0708-33]
35%	–	97%	23	–	–	–	D-S-K-K-F-K-R-D-F-L-F-S-D (DSKKFKRDFLFSD; not fully specified (C-terminus); printed as D-S-K-K-F-K-R-D-F-L-F-S-D) [Peptide 0708-26]
71%	–	96%	52	–	–	–	D-S-K-W-H-H-R-G-H-L-Y-S-D (DSKWHHRGHLYSD) [Peptide 0708-31]
80%	–	90%	63	–	–	–	D-S-K-K-F-D-R-G-H-L-Y-S-D (DSKKFDRGHLYSD; not fully specified (C-terminus); printed as D-S-K-K-F-D-R-G-H-L-Y-S-D) [Peptide 0708-30]
81%	–	93%	64	–	–	–	D-S-K-K-Y-D-R-G-F-L-W-S-D (DSKKYDRGFLWSD; not fully specified (C-terminus); printed as D-S-K-K-Y-D-R-G-F-L-W-S-D) [Peptide 0708-34]
37%	–	92%	43	–	–	–	D-S-K-K-H-F-R-D-K-L-Y-S-D (DSKKHFRDKLYSD; not fully specified (C-terminus); printed as D-S-K-K-H-F-R-D-K-L-Y-S-D) [Peptide 0708-22]
25%	90	90%	–	–	–	–	D-S-K-F-A-F-R-G-G-I-A-S-D (DSKFAFRGGIASD; not fully specified (C-terminus); printed as D-S-K-F-A-F-R-G-G-I-A-S-D) [Peptide 0735-41]
